Source: PMC2899456 (International Journal of Biological Sciences, 2010)

Columns and labels:
Experiment in all cases: co-IP
E2F-1/Y411A = E2F-1/Y411A (UniProt Q01094 1-437, Y411A)
E2F-1/S375A = E2F-1/S375A (UniProt Q01094 1-437, S375A)
E2F-1/S403A = E2F-1/S403A (UniProt Q01094 1-437, S403A)
E2F-1/S332-7A = E2F-1/S332-7A (UniProt Q01094 1-437, S332-7A | S332-7A)

- fold change of the pRB/E2F-1 co-IP ratio against E2F-1/wt (E2F-1/Y411A): ~4 fold (decrease)
- fold change of the pRB/E2F-1 co-IP ratio against E2F-1/wt (E2F-1/S375A): ~2.5 fold (increase)
- fold change of the pRB/E2F-1 co-IP ratio against E2F-1/wt (E2F-1/S403A): ~3 fold (increase)
- fold change of the pRB/E2F-1 co-IP ratio against E2F-1/wt (E2F-1/S332-7A): ~3 fold (increase)
B1: pRB (natural protein, mouse (endogenous in ψ-CRE), UniProt P13405 1-921, looked up)
chain: MPPKAPRRAAAAEPPPPPPPPPREDDPAQDSGPEELPLARLEFEEIEEPEFIALCQKLKVPDHVRERAWLTWEKVSSVDGILEGYIQKKKELWGICIFIAAVDLDEMPFTFTELQKSIETSVYKFFDLLKEIDTSTKVDNAMSRLLKKYNVLCALYSKLERTCELIYLTQPSSALSTEINSMLVLKISWITFLLAKGEVLQMEDDLVISFQLMLCVVDYFIKFSPPALLREPYKTAAIPINGSPRTPRRGQNRSARIAKQLENDTRIIEVLCKEHECNIDEVKNVYFKNFIPFINSLGIVSSNGLPEVESLSKRYEEVYLKNKDLDARLFLDHDKTLQTDPIDSFETERTPRKNNPDEEANVVTPHTPVRTVMNTIQQLMVILNSASDQPSENLISYFNNCTVNPKENILKRVKDVGHIFKEKFANAVGQGCVDIGVQRYKLGVRLYYRVMESMLKSEEERLSIQNFSKLLNDNIFHMSLLACALEVVMATYSRSTLQHLDSGTDLSFPWILNVLNLKAFDFYKVIESFIKVEANLTREMIKHLERCEHRIMESLAWLSDSPLFDLIKQSKDGEGPDNLEPACPLSLPLQGNHTAADMYLSPLRSPKKRTSTTRVNSAANTETQAASAFHTQKPLKSTSLALFYKKVYRLAYLRLNTLCARLLSDHPELEHIIWTLFQHTLQNEYELMRDRHLDQIMMCSMYGICKVKNIDLKFKIIVTAYKDLPHAAQETFKRVLIREEEFDSIIVFYNSVFMQRLKTNILQYASTRPPTLSPIPHIPRSPYKFSSSPLRIPGGNIYISPLKSPYKISEGLPTPTKMTPRSRILVSIGESFGTSEKFQKINQMVCNSDRVLKRSAEGGNPPKPLKKLRFDIEGADEADGSKHLPAESKFQQKLAEMTSTRTRMQKQRMNESKDVSNKEEK
